Literature values as cited in paper PMC4114557.
Like-named read-outs stand apart in the source and are kept apart here.

Key:
[1] = target: Colicin E3 R-domain (Escherichia coli) (UniProt P00646)
[2] = target: Colicin E9 R-domain (Escherichia coli) (UniProt P09883)
BtuB (Escherichia coli) [3] = target: BtuB (Escherichia coli) (UniProt P06129)
BtuB (Escherichia coli) [4] = target: BtuB (Escherichia coli) (UniProt P06129); remark: listed apart in the source
OmpF (Escherichia coli) [5] = target: OmpF (Escherichia coli) (UniProt P02931)
OmpF (Escherichia coli) [6] = target: OmpF (Escherichia coli) (UniProt P02931); remark: listed apart in the source
BtuB (Escherichia coli) [7] = target: BtuB (Escherichia coli) (UniProt P06129); remark: listed apart in the source
OmpF (Escherichia coli) [8] = target: OmpF (Escherichia coli) (UniProt P02931); remark: listed apart in the source

Chain of UniProt P02931 (P02931 23-362): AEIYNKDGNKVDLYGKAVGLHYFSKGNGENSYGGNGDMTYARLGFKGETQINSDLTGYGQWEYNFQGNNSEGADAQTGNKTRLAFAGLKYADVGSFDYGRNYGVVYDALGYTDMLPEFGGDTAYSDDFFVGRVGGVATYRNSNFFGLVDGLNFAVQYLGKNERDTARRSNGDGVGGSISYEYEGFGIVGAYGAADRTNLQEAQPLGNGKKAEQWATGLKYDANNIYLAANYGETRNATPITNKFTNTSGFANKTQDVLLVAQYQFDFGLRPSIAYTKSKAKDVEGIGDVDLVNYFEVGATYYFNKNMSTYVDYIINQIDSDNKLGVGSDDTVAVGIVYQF

## BtuB (from UniProt P06129)
[1]
  Kd: 1 nM
[2]
  Kd: 1 nM

## Colicin E2 R-domain (from UniProt P04419)
BtuB (Escherichia coli) [3]
  Kd: 1 nM

## Colicin E3 R-domain (from UniProt P00646)
BtuB (Escherichia coli) [4]
  Kd: 1 nM

## Colicin E9 OBS1 (from UniProt P09883)
OmpF (Escherichia coli) [5]
  Kd: 2000 nM

## Colicin E9 OBS2 (from UniProt P09883)
OmpF (Escherichia coli) [6]
  Kd: 24000 nM

## Colicin E9 R-domain (from UniProt P09883)
BtuB (Escherichia coli) [7]
  Kd: 1 nM

## Colicin N T-domain (from UniProt P08083)
OmpF (Escherichia coli) [8]
  Kd: 3000 nM
